# Measurements: patent US10947317B2, “NaPi2b-targeted antibody-drug conjugates and methods of use thereof” (Mersana Therapeutics, Inc., priority 2016, dated 2021)
# What was measured:
# [1] = Plasma pharmacokinetics in cynomolgus monkeys; type: in vivo; conditions: for Plasma Half-life T1/2, Dose Range Average, Total Drug: total AF-HPA
# Protocol: To determine the pharmacokinetics of the NaPi2b antibody-polymer-drug conjugates, assays were developed to measure the plasma concentration of the NaPi2b antibody-PHF-AF-HPA conjugate (i.e., conjugated AF-HPA) and concentration of the released, unconjugated AF-HPA and AF (free drugs). To determine the plasma concentration of the free drugs, the acidified plasma sample was treated with acetonitrile to precipitate plasma proteins and antibody drug conjugate and the acetonitrile containing supernatant was analyzed for free drugs by LC-MS/MS. To determine the concentration of conjugated AF-HPA, the acidified plasma sample was subjected to basic hydrolysis followed by acidification and protein precipitation with acetonitrile. The acetonitrile supernatant containing the released AF-HPA and AF was analyzed by LC-MS/MS. The standard curves for the free drugs and conjugated AF-HPA in plasma were linear over the concentration ranges of 1 to 3,000 ng/mL and 10 to 20,000 ng/mL, respectively. Total NaPi2b concentration was determined by ELISA.
# The conjugate was administered to groups of 2 animals/sex at 0 mg/kg (Group 1), 1.25 mg/kg (1074 μg/m^2 auristatin payload equivalents; Group 2), 2.5 mg/kg (2147 μg/m^2 auristatin payload equivalents; Group 3) or 5 mg/kg (or 4294 μg/m^2 auristatin payload equivalents; Group 4) as a single iv infusion. Blood was collected for hematology, coagulation, and serum chemistry analysis from all groups on days −7, 3, 8, 15, and 22. Blood samples were also collected at predose, 10 minutes, 1, 6, 24, 48, 72, 96, and 168 hours following the end of the IV infusions, and on days 15 and 22 for the PK determination.
# The blood samples were analyzed by LC-MS/MS to determine the concentration of total AF-HPA and by ELISA to determine the total antibody concentration at each time point. FIGS. 6A and 6B show the plasma pharmacokinetics for the total antibody and total drug respectively after administration of a single dose in cynomolgus monkeys with the conjugate Example 1C at 1.25 mg/kg (1074 μg/m^2 auristatin payload equivalents; Group 2), 2.5 mg/kg (2147 μg/m^2 auristatin payload equivalents; Group 3) or 5 mg/kg (or 4294 μg/m^2 auristatin payload equivalents; Group 4). Table VIII gives the calculated AUC0 to 504 hrs and half-lives for total antibody and the total AF-HPA. Free drugs (i.e., unconjugated AF and unconjugated AF-HPA) were not detected (LLOQ of the LC MS/MS method was 1 ng/mL).
# [2] = system: OVCAR3 cells; experiment: Cell surface binding by flow cytometry, OVCAR3; conditions: on ice 3 hours
# Protocol: The cell surface binding of the Example 1C, XMT 1535-(EG2-MI-(10 kDa PHF-BA-(AF-HPA-Ala))) and anti-NaPi2B antibody XMT 1535, to antigen expressing cells was evaluated by flow cytometry. TOV-21G or OVCAR3 cells were grown overnight to approximately 90% confluent cultures in media, then were released from the plate surface by treatment with Trypsin-EDTA (Gibco-Thermo Fisher Scientific, USA). The detached cells were washed once with ice cold media containing 6% goat serum and resuspended in the same media. 50,000 cells were aliquoted per well of a V-bottom, 96-well plate and incubated with a range of test articles concentrations (0.23-500 nM) in 100 μl Media (1:1 mixture MCDB105 (1.5 g/L sodium bicarbonate) and Medium 199 (2.2 g/L sodium bicarbonate plus 15% FBS)) with 6% goat serum on ice for 3 hours. […] The amount of fluorescence bound per cell was determined by running 5000 cells for each treatment on a MACSQuant flow cytometer (Miltenyi Biotec, Bergisch Gladbach, Germany). The median fluorescence value for each treatment was graphed, and the binding constant, KD was calculated for each test article with GraphPad Prism software by non-linear regression using the one site specific binding model.
# [3] = system: non-small cell lung cancer model (CTG-0178); experiment: Tumor growth response, patient derived xenograft NSCLC model CTG-0178; type: in vivo; conditions: FIG. 7
# Protocol: Treatment efficacy was determined from the incidence and magnitude of regression responses of the tumor size observed during the study. Treatment may cause partial regression (PR) or complete regression (CR) of the tumor in an animal. In a PR response, the tumor volume was 50% or less of its Day 1 volume for three consecutive measurements during the course of the study, and equal to or greater than 13.5 mm^3 for one or more of these three measurements. In a CR response, the tumor volume was less than 13.5 mm3 for three consecutive measurements during the course of the study. An animal with a CR response at the termination of a study was additionally classified as a tumor-free survivor (TFS). Animals were monitored for regression responses.
# Female CB-17 SCID mice were subcutaneously implanted with OVCAR-3 (n=10 for each group) or non-small cell lung cancertumor fragments (n=10 for each group). Test compounds or vehicle were dosed IV as a single dose on day 1 or as indicated. Tumor size was measured at the times indicated in FIGS. 1 to 3 using digital calipers. Tumor volume was calculated and was used to determine the delay in tumor growth. Mice were sacrificed when tumors reached a size of 1000 mm^3. Tumor volumes are reported as the mean±SEM for each group.
# There were no deaths in any of the groups during the study.
# [4] = single IV infusion 1.25, 2.5 or 5 mg/kg, plasma
# [5] = single IV infusion 1.25, 2.5 or 5 mg/kg, plasma, listed as XMT-1535-polymer-drug conjugate
substance,measurement,setting,value
XMT-1535-(EG2-MI-(10 kDa PHF-BA-(AF-HPA-Ala))) [Example 1C],Free drugs (unconjugated AF and unconjugated AF-HPA) in plasma,[1]; LLOQ of the LC MS/MS method was 1 ng/mL,not detected
same,stability in plasma,"[1]; in vivo, cynomolgus plasma",good stability in plasma with little or no detection of free drugs
same,AUC0-504 hrs (total AF-HPA),[1]; plasma,~157 µg·h/mL/mg/kg
same,"Plasma Half-life T1/2, Dose Range Average, Total Antibody",[1]; [4],211 ± 17 h
same,"Plasma Exposure AUC0-504 hrs Dose Normalized, Total Antibody","[1]; single IV infusion 1.25, 2.5 or 5 mg/kg, plasma, ELISA","1,407 ± 99 μg · hrs/mL/mg/kg"
same,"Plasma Half-life T1/2, Dose Range Average, Total Antibody",[1]; [5],~220 h
same,"Plasma Half-life T1/2, Dose Range Average, Total Drug",[1]; [4],125 ± 4.8 h
same,"Plasma Exposure AUC0-504 hrs Dose Normalized, Total Drug","[1]; single IV infusion 1.25, 2.5 or 5 mg/kg, plasma, total AF-HPA by LC-MS/MS",157 ± 13 µg·h/mL/mg/kg
same,"Plasma Half-life T1/2, Dose Range Average, Total Drug",[1]; [5],~120 h
same,Kd,[2],3.84 nM
same,tumor volume / tumor growth response,[3]; 3 mg/kg IV dosed weekly for 3 weeks,significantly lower tumor growth compared to that of the vehicle control group
same,tumor growth response,[3]; 5 mg/kg IV single dose,significantly lower tumor growth compared to that of the vehicle control group
